# Assay results as given in patent US20210340530A1 (INTELLIA THERAPEUTICS, published 2021).
# T1: WT1 (Wilms' tumor protein) peptide on HLA-A*02:01 (human)
# T1 peptide: RMFPNAPYL
# How the values were obtained:
# [1] = target: T1, WT1 (Wilms' tumor protein) peptide on …; assay: killing
# [2] = target: T2, VLD-Tetramer (pMHC tetramer with WT1 peptide …); assay: flow cytometry, VLD-Tetramer staining of engineered T cells; TRAC RNP only
# T2 construct: Staining reagent; also called VLD (Wilms' tumor antigen) tetramer; TCR specific pMHC tetramer
# Protocol: (§1) Four to 12 days after RNP nucleofection, edited T cells (200 ul/200,000 cells) were collected in a 96 well round bottom plate and spun down at 500 g for 5 minutes. Cells were then resuspended in an antibody mixture containing a combination of antibodies targeting CD3, CD4, CD8, CD45RO, CD45RA, CD27, CCR7, CD62L, and/or the TCR specific pMHC tetramer or TCR specific Vbeta chain antibody. The mixture was incubated for 45 minutes at room temperature in the dark. Samples were spun down at 500 g for 5 minutes, cell pellets collected, and resuspended in 1:10,000 DAPI (Biolegend—#422801) in FACS buffer. Flow cytometry was then performed using the cytoflex according to the manufacturer's instructions.
# (§2) T cells were evaluated with additional engineered TCRs for the impact of endogenous beta chains on pairing of both the inserted alpha chain and inserted beta chain. The experiment was performed as described herein except tetramer staining was used to measure MFI and the AAV inserts in Table 31 were used for transduction.
# [3] = target: T3, … (RMF) WT1 peptide pulsed on target cells (HLA-02.01 positive T2 cell line; OCI-AML3); assay: cell-based or functional assay
# [4] = target: T4, … (VLD) WT1 peptide pulsed on target cells (HLA-02.01 positive T2 cell line; OCI-AML3); assay: cell-based or functional assay
# [5] = target: T4, … (VLD) WT1 peptide pulsed on target …; assay: cell-based or functional assay; remark: listed apart in the source
# [6] = target: T2, VLD-Tetramer (pMHC tetramer with WT1 …); assay: flow cytometry, VLD-Tetramer staining of engineered T cells; TRAC + TRBC RNP
# Protocol: as §1, §2
# [7] = target: T3, … (RMF) WT1 peptide pulsed on target …; assay: cell-based or functional assay; remark: listed apart in the source
# [8] = target: T4, … (VLD) WT1 peptide pulsed on target …; assay: cell-based or functional assay; remark: listed apart in the source
# [9] = target: T4, … (VLD) WT1 peptide pulsed on target …; assay: cell-based or functional assay; remark: listed apart in the source
# [10] = target: T3, … (RMF) WT1 peptide pulsed on target …; assay: cell-based or functional assay; remark: listed apart in the source
# [11] = target: T4, … (VLD) WT1 peptide pulsed on target …; assay: cell-based or functional assay; remark: listed apart in the source
binder,measurement,setting,value
"TCR-F (TCR, V domains shown) Valpha: AQKITQTQPGMFVQEKEAVTLDCTYDTSDPSYGLFWYKQPSSGEMIFLIYQGSYDQQNATEGRYSLNFQKARKSANLVISASQLGDSAMYFCAISGNTPLVFGKGTRLSVIA Vbeta: AAGVIQSPRHLIKEKRETATLKCYPIPRHDTVYWYQQGPGQDPQFLISFYEKMQSDKGSIPDRFSAQQFSDYHSELNMSSLELGDSALYFCASSLRGGLEKLFFGSGTQLSVL",binding result,[1],no recognition
"TCR-H (WT1-specific T-cell receptor) (TCR, V domains shown, also called AV16-TCR-H) V domain 1: RKEVEQDPGPFNVPEGATVAFNCTYSNSASQSFFWYRQDCRKEPKLLMSVYSSGNEDGRFTAQLNRASQYISLLIRDSKLSDSATYLCVVKPDPGAGSYQLTFGKGTKLSVIP V domain 2: NAGVTQTPKFRVLKTGQSMTLLCAQDMNHEYMYWYRQDPGMGLRLIHYSVGEGTTAKGEVPDGYNVSRLKKQNFLLGLESAAPSQTSVYFCASRGYHRLNNEQFFGPGTRLTVLE",Mean % Tetramer+ (CD4+),[2],71.7%
same,Mean % Tetramer+ (CD8+),[2],68.8%
same,Mean Tetramer MFI (CD4+),[2],64300 MFI
same,Mean Tetramer MFI (CD8+),[2],75200 MFI
same,% CD4+ CD107a+; TRAC/TRBC; 50 nM RMF; T2,[3],3.7%
same,% CD8+ CD107a+; TRAC/TRBC; 50 nM RMF; T2,[3],2.64%
same,% CD4+ CD107a+; TRAC/TRBC; 0 nM VLD; T2,[4],3.42%
same,% CD4+ CD107a+; TRAC/TRBC; 0.005 nM VLD; T2,[4],3.63%
same,% CD4+ CD107a+; TRAC/TRBC; 0.05 nM VLD; T2,[4],4.48%
same,% CD4+ CD107a+; TRAC/TRBC; 0.5 nM VLD; T2,[4],6.82%
same,% CD4+ CD107a+; TRAC/TRBC; 5 nM VLD; T2,[4],8.09%
same,% CD4+ CD107a+; TRAC/TRBC; 50 nM VLD; T2,[4],8.28%
same,% CD8+ CD107a+; TRAC/TRBC; 0 nM VLD; T2,[4],2.29%
same,% CD8+ CD107a+; TRAC/TRBC; 0.005 nM VLD; T2,[4],5.05%
same,% CD8+ CD107a+; TRAC/TRBC; 0.05 nM VLD; T2,[4],23.6%
same,% CD8+ CD107a+; TRAC/TRBC; 0.5 nM VLD; T2,[4],45.6%
same,% CD8+ CD107a+; TRAC/TRBC; 5 nM VLD; T2,[4],60.7%
same,% CD8+ CD107a+; TRAC/TRBC; 50 nM VLD; T2,[4],70.5%
same,IFN-gamma release; TRAC/TRBC; 50 nM VLD; T2,[5],16100
same,IFN-gamma release; TRAC/TRBC; 500 nM VLD; T2,[5],24400
same,IFN-gamma release; only TRAC; 50 nM VLD; T2,[5],15900
same,IFN-gamma release; only TRAC; 500 nM VLD; T2,[5],24300
same,Mean % Tetramer+ (CD4+),[6],80.2%
same,Mean % Tetramer+ (CD8+),[6],77.1%
same,Mean Tetramer MFI (CD4+),[6],131000 MFI
same,Mean Tetramer MFI (CD8+),[6],139000 MFI
same,Caspase 3/7 integrated intensity; TRAC only; 500 nM RMF; T2,[7],4190
same,Caspase 3/7 integrated intensity; TRAC/TRBC; 500 nM RMF; T2,[7],3890
same,Caspase 3/7 integrated intensity; TRAC only; 0 nM VLD; T2,[8],6560
same,Caspase 3/7 integrated intensity; TRAC only; 0.005 nM VLD; T2,[8],7650
same,Caspase 3/7 integrated intensity; TRAC only; 0.05 nM VLD; T2,[8],23600
same,Caspase 3/7 integrated intensity; TRAC only; 0.5 nM VLD; T2,[8],550000
same,Caspase 3/7 integrated intensity; TRAC only; 5 nM VLD; T2,[8],992000
same,Caspase 3/7 integrated intensity; TRAC only; 50 nM VLD; T2,[8],1.08e+06
same,Caspase 3/7 integrated intensity; TRAC only; 500 nM VLD; T2,[8],1.18e+06
same,Caspase 3/7 integrated intensity; TRAC/TRBC; 0 nM VLD; T2,[8],7390
same,Caspase 3/7 integrated intensity; TRAC/TRBC; 0.005 nM VLD; T2,[8],9820
same,Caspase 3/7 integrated intensity; TRAC/TRBC; 0.05 nM VLD; T2,[8],32400
same,Caspase 3/7 integrated intensity; TRAC/TRBC; 0.5 nM VLD; T2,[8],628000
same,Caspase 3/7 integrated intensity; TRAC/TRBC; 5 nM VLD; T2,[8],984000
same,Caspase 3/7 integrated intensity; TRAC/TRBC; 50 nM VLD; T2,[8],1.08e+06
same,Caspase 3/7 integrated intensity; TRAC/TRBC; 500 nM VLD; T2,[8],1.18e+06
same,IL2 release; TRAC only; 0 nM VLD; T2,[9],102 pg/mL
same,IL2 release; TRAC only; 0.005 nM VLD; T2,[9],44 pg/mL
same,IL2 release; TRAC only; 0.05 nM VLD; T2,[9],2 pg/mL
same,IL2 release; TRAC only; 0.5 nM VLD; T2,[9],23 pg/mL
same,IL2 release; TRAC only; 5 nM VLD; T2,[9],175 pg/mL
same,IL2 release; TRAC only; 50 nM VLD; T2,[9],111 pg/mL
same,IL2 release; TRAC only; 500 nM VLD; T2,[9],387 pg/mL
same,IL2 release; TRAC/TRBC; 0 nM VLD; T2,[9],17 pg/mL
same,IL2 release; TRAC/TRBC; 0.005 nM VLD; T2,[9],15 pg/mL
same,IL2 release; TRAC/TRBC; 0.05 nM VLD; T2,[9],40 pg/mL
same,IL2 release; TRAC/TRBC; 0.5 nM VLD; T2,[9],17 pg/mL
same,IL2 release; TRAC/TRBC; 5 nM VLD; T2,[9],30 pg/mL
same,IL2 release; TRAC/TRBC; 50 nM VLD; T2,[9],286 pg/mL
same,IL2 release; TRAC/TRBC; 500 nM VLD; T2,[9],455 pg/mL
same,% CD4+ TNFa+ IFNg+; TRAC/TRBC; 50 nM RMF; T2,[10],2.9%
same,% CD8+ TNFa+ IFNg+; TRAC/TRBC; 50 nM RMF; T2,[10],0.6%
same,% CD4+ TNFa+ IFNg+; TRAC/TRBC; 0 nM VLD; T2,[11],3.1%
same,% CD4+ TNFa+ IFNg+; TRAC/TRBC; 0.005 nM VLD; T2,[11],2.1%
same,% CD4+ TNFa+ IFNg+; TRAC/TRBC; 0.05 nM VLD; T2,[11],3%
same,% CD4+ TNFa+ IFNg+; TRAC/TRBC; 0.5 nM VLD; T2,[11],4.4%
same,% CD4+ TNFa+ IFNg+; TRAC/TRBC; 5 nM VLD; T2,[11],6%
same,% CD4+ TNFa+ IFNg+; TRAC/TRBC; 50 nM VLD; T2,[11],6.9%
same,% CD8+ TNFa+ IFNg+; TRAC/TRBC; 0 nM VLD; T2,[11],0.5%
same,% CD8+ TNFa+ IFNg+; TRAC/TRBC; 0.005 nM VLD; T2,[11],3.7%
same,% CD8+ TNFa+ IFNg+; TRAC/TRBC; 0.05 nM VLD; T2,[11],27.1%
same,% CD8+ TNFa+ IFNg+; TRAC/TRBC; 0.5 nM VLD; T2,[11],48.7%
same,% CD8+ TNFa+ IFNg+; TRAC/TRBC; 5 nM VLD; T2,[11],67.5%
same,% CD8+ TNFa+ IFNg+; TRAC/TRBC; 50 nM VLD; T2,[11],79.2%
